Reference: article PMC10786891, “Massively parallel profiling of RNA-targeting CRISPR-Cas13d”
Where a chain is given by its changes, count along the chain named. Numbers in names are those of the source.

T1: EsCas13d, nuclease-dead (Eubacterium siraeum, UniProt B0MS50, R295A;H300A;R849A;H854A)
T1 sequence: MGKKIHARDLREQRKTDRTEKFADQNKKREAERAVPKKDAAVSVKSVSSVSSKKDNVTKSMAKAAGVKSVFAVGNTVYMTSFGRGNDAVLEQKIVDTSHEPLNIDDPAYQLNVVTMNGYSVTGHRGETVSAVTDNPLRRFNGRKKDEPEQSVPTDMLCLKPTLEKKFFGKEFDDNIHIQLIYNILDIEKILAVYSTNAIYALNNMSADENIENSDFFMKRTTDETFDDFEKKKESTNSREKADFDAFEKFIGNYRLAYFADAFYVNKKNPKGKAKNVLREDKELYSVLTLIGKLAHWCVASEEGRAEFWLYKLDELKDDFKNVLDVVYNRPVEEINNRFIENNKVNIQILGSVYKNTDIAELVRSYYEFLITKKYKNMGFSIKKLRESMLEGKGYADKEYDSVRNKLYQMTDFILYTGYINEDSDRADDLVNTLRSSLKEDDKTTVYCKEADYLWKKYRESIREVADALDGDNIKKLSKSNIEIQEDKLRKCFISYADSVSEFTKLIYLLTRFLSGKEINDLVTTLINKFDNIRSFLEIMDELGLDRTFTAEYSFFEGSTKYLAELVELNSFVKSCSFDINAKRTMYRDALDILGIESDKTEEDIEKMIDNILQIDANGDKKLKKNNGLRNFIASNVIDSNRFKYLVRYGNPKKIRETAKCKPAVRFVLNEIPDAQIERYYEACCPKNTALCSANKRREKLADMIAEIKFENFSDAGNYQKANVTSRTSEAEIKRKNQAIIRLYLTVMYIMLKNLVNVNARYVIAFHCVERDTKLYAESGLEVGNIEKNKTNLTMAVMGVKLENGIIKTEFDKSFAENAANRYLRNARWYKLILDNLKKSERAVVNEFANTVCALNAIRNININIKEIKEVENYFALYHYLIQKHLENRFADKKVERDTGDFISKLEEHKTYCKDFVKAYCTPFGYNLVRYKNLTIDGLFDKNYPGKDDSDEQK

B1: target 2 MT 5'PFS CAC 3'PFS CCC (mixed)
RNA 1: CACCCGUGCAAAAUUGCAGGGGUCUAAAACCUUCUCCAAAUUGUUUCAUCCU
RNA 2: GGGAAUGGAUCCACAUCUACGAAUUCCACAGGAUGAAACAAUUUGGAGAAGCCCAGAUCGGAAGAGCACACGU
B2: target 2 MT 5'PFS CAU 3'PFS CAU (mixed)
RNA 1: B1 RNA 1
RNA 2: B1 RNA 2 with C29U, C53A, C54U
B3: target 2 MT 5'PFS CAU 3'PFS AAG (mixed)
RNA 1: B1 RNA 1
RNA 2: B1 RNA 2 with C29U, C52A, C53A, C54G
B4: target 2 MT 5'PFS GAC 3'PFS UGU (mixed)
RNA 1: B1 RNA 1
RNA 2: B1 RNA 2 with C27G, C52U, C53G, C54U
B5: target 2 MT 5'PFS UGG 3'PFS UCA (mixed)
RNA 1: B1 RNA 1
RNA 2: B1 RNA 2 with C27U, A28G, C29G, C52U, C54A
B6: target 2 MT 5'PFS AUC 3'PFS CAU (mixed)
RNA 1: B1 RNA 1
RNA 2: B1 RNA 2 with C27A, A28U, C53A, C54U
B7: target 2 MT 5'PFS AUC 3'PFS ACU (mixed)
RNA 1: B1 RNA 1
RNA 2: B1 RNA 2 with C27A, A28U, C52A, C54U
B8: target 2 MT 5'PFS GUA 3'PFS CCG (mixed)
RNA 1: B1 RNA 1
RNA 2: B1 RNA 2 with C27G, A28U, C29A, C54G
B9: target 2 MT 5'PFS AUC 3'PFS ACA (mixed)
RNA 1: B1 RNA 1
RNA 2: B1 RNA 2 with C27A, A28U, C52A, C54A
B10: target 2 MT 5'PFS CAU 3'PFS AAU (mixed)
RNA 1: B1 RNA 1
RNA 2: B1 RNA 2 with C29U, C52A, C53A, C54U
B11: target 2 MT 5'PFS CAU 3'PFS AAA (mixed)
RNA 1: B1 RNA 1
RNA 2: B1 RNA 2 with C29U, C52A, C53A, C54A
B12: target 2 MT 5'PFS AGG 3'PFS AGG (mixed)
RNA 1: B1 RNA 1
RNA 2: B1 RNA 2 with C27A, A28G, C29G, C52A, C53G, C54G
B13: target 2 MT 5'PFS GGG 3'PFS UUA (mixed)
RNA 1: B1 RNA 1
RNA 2: B1 RNA 2 with C27G, A28G, C29G, C52U, C53U, C54A
B14: target 2 MT 5'PFS UUG 3'PFS UCA (mixed)
RNA 1: B1 RNA 1
RNA 2: B1 RNA 2 with C27U, A28U, C29G, C52U, C54A
B15: target 2 MT 5'PFS AUC 3'PFS CAG (mixed)
RNA 1: B1 RNA 1
RNA 2: B1 RNA 2 with C27A, A28U, C53A, C54G
B16: target 2 MT 5'PFS GGG 3'PFS UUC (mixed)
RNA 1: B1 RNA 1
RNA 2: B1 RNA 2 with C27G, A28G, C29G, C52U, C53U
B17: target 2 MT 5'PFS GGG 3'PFS UUU (mixed)
RNA 1: B1 RNA 1
RNA 2: B1 RNA 2 with C27G, A28G, C29G, C52U, C53U, C54U
B18: target 2 MT 5'PFS CAC 3'PFS CCA (mixed)
RNA 1: B1 RNA 1
RNA 2: B1 RNA 2 with C54A
B19: target 2 MT 5'PFS CGA 3'PFS CAA (mixed)
RNA 1: B1 RNA 1
RNA 2: B1 RNA 2 with A28G, C29A, C53A, C54A
B20: target 2 MT 5'PFS GAC 3'PFS UGA (mixed)
RNA 1: B1 RNA 1
RNA 2: B1 RNA 2 with C27G, C52U, C53G, C54A
B21: target 2 MT 5'PFS AUG 3'PFS UAU (mixed)
RNA 1: B1 RNA 1
RNA 2: B1 RNA 2 with C27A, A28U, C29G, C52U, C53A, C54U
B22: target 2 MT 5'PFS CGA 3'PFS CAC (mixed)
RNA 1: B1 RNA 1
RNA 2: B1 RNA 2 with A28G, C29A, C53A
B23: target 2 MT 5'PFS CAU 3'PFS AAC (mixed)
RNA 1: B1 RNA 1
RNA 2: B1 RNA 2 with C29U, C52A, C53A
B24: target 2 MT 5'PFS UUC 3'PFS CUC (mixed)
RNA 1: B1 RNA 1
RNA 2: B1 RNA 2 with C27U, A28U, C53U
B25: target 2 MT 5'PFS AUG 3'PFS UAA (mixed)
RNA 1: B1 RNA 1
RNA 2: B1 RNA 2 with C27A, A28U, C29G, C52U, C53A, C54A
B26: target 2 MT 5'PFS AUG 3'PFS UAC (mixed)
RNA 1: B1 RNA 1
RNA 2: B1 RNA 2 with C27A, A28U, C29G, C52U, C53A
B27: target 2 MT 5'PFS UAU 3'PFS AAG (mixed)
RNA 1: B1 RNA 1
RNA 2: B1 RNA 2 with C27U, C29U, C52A, C53A, C54G
B28: target 2 MT 5'PFS UGA 3'PFS CUU (mixed)
RNA 1: B1 RNA 1
RNA 2: B1 RNA 2 with C27U, A28G, C29A, C53U, C54U
B29: target 2 MT 5'PFS CGG 3'PFS UUU (mixed)
RNA 1: B1 RNA 1
RNA 2: B1 RNA 2 with A28G, C29G, C52U, C53U, C54U
B30: target 2 MT 5'PFS CAC 3'PFS CCU (mixed)
RNA 1: B1 RNA 1
RNA 2: B1 RNA 2 with C54U
B31: target 2 MT 5'PFS GAC 3'PFS UGC (mixed)
RNA 1: B1 RNA 1
RNA 2: B1 RNA 2 with C27G, C52U, C53G
B32: target 2 MT 5'PFS UUG 3'PFS UCU (mixed)
RNA 1: B1 RNA 1
RNA 2: B1 RNA 2 with C27U, A28U, C29G, C52U, C54U
B33: target 1 insA 3' of 13,insC 3' of 10 (mixed)
RNA 1: CACCCGUGCAAAAAUGCAGGGGUCUAAAACUGAGCGGAUAACCUCUCUAUGG
RNA 2: GGGAAUGGAUCCACAUCUACGAAUUCGUACCAUAGAGAGAGUUCAUCCGCUCACCGAGAUCGGAAGAGCACACGU
B34: target 1 G5U,U8A (mixed)
RNA 1: B33 RNA 1
RNA 2: GGGAAUGGAUCCACAUCUACGAAUUCGUACCAUAGAGAGGUUAACCUCUCACCGAGAUCGGAAGAGCACACGU
B35: target 1 insU 3' of 22,insA 3' of 19 (mixed)
RNA 1: B33 RNA 1
RNA 2: B33 RNA 2 with C31U, A32C, U33A, A34U, G35A, U42G, C44U
B36: target 1 C2U,U3A (mixed)
RNA 1: B33 RNA 1
RNA 2: B34 RNA 2 with A44U, U47G, U49A, C50U
B37: target 1 C21U,C22U (mixed)
RNA 1: B33 RNA 1
RNA 2: B34 RNA 2 with C30U, C31U, A44U, U47G

Biological target: T1, EsCas13d, nuclease-dead
Experiment: crRNA (strand 1, pre-loaded); Mg2+; 40 mM Tris-HCl pH 7.5, 150 mM NaCl, 6 mM MgCl2, 1 mM DTT, 0.1% Tween-20, 0.2 mg/ml BSA; 25 C; 10 min per concentration, then washed
Conditions: tags: His6-TwinStrep-SUMO cleaved; N-terminal SNAP kept (SNAP-Surface 488); label: 3' end held by stalled T7 RNA polymerase

Binder	Kd [nM]
B1	25 ± 10
B2	4.9 ± 0.9
B3	4.9 ± 0.7
B4	23 ± 4
B5	8.5 ± 0.9
B6	78 ± 27
B7	~41
B8	9.6 ± 0.6
B9	~70
B10	4.4 ± 0.7
B11	4.2 ± 0.7
B12	5.2 ± 0.6
B13	14.9 ± 1.7
B14	~70
B15	80 ± 40
B16	42 ± 15
B17	48 ± 12
B18	4.5 ± 1.2
B19	6.5 ± 2

Binder	Kd [nM]
B20	12.9 ± 2
B21	15 ± 4
B22	9 ± 4
B23	4.2 ± 0.6
B24	~32
B25	7.9 ± 1.3
B26	12.6 ± 2.3
B27	20.9 ± 2.2
B28	14.1 ± 3
B29	15 ± 2.7
B30	~33
B31	14.4 ± 2.7
B32	27.6 ± 3.4
B33	9.2 ± 0.9
B34	~70
B35	80 ± 14
B36	16.1 ± 1.9
B37	29 ± 4
